Test [1] has as its target T1, human insulin-like growth factor-1 (mature, recombinant native IGF-1, Peprotech Cat.#100-11) (human, UniProt P05019 49-118).
T1 construct: In SPR it was the analyte in solution; also called native recombinant IGF-1; human IGF-1
Briefly: ELISA, clone culture supernatant. Background: In an ELISA, binding on a coated surface is turned into a signal by an enzyme label.

The target of test [2] is T1, human insulin-like growth factor-1 …. Briefly: SPR (BIAcore T200), 25 C, antibody captured, antigen in solution. The protocol:
(§1) The BIAcore T200 System was driven under the control software V1.1.1. Polyclonal rabbit IgG antibody <IgGFCγM>R (Jackson ImmunoResearch Laboratories Inc.) was immobilized at 30 μg/ml in 10 mM sodium acetate buffer (pH 4.5) at 6500 RU on the flow cells 1, 2, 3, and 4, respectively, via EDC/NHS chemistry according to the manufacturer's instructions. Finally, the sensor surface was blocked with a 1 M ethanolamine solution. The complete experiment was performed at 25° C.
(§2) The clone culture supernatants containing the respective antibodies at approx. 40 nM were captured for 2 min at a flow rate of 5 μl/min on the <IgGFCγM>R surface. As analytes in solution the recombinant native IGF-1 (Peprotech Inc. Cat.#100-11), recombinant native IGF-2 (Peprotech Inc. Cat.#100-12), Thermus thermophilus SlyD-IGF-1(74-90), recombinant wild-type Thermus thermophilus SlyD, recombinant Thermus thermophilus SlyD-ΔIF, recombinant wild-type Thermococcus gammadurans SlyD, recombinant Thermococcus gammadurans SlyD-IGF-2 (53-65) fusion polypeptides were used. Thermus thermophilus SlyD-ΔIF is solely the FKBP domain of Thermus thermophilus SlyD lacking the IF domain. Thermococcus gammadurans SlyD-IGF-2(53-65) was used to counterscreen and investigate the specificity for the IGF-1 hairpin in contrast to the IGF-2 hairpin insertion. The respective analytes were injected at different concentration steps from 90 nM, 30 nM, 10 nM, 3.3 nM, 1.1 nM and 0 nM. The association phase was monitored for 3 min. at a flow rate of 100 μl/min. The dissociation was monitored for 10 min. at a flow rate of 100 μl/min. The system was regenerated using a 10 mM glycine buffer (pH 1.7). Kinetics were evaluated using the BIAcore Evaluation Software.

In the next test the target is T2, SEQ ID NO 44 (human, also: covalently linked to cellulose).
T2 construct: Spot on the CelluSpots peptide array; also called Y-F-G-N-K-P-T-G-Y-G-S-S-S-R-R
T2 peptide: YFGNKPTGYGSSSRR
The test is described as follows: CelluSpots peptide array, chemiluminescence. The method, then: (§3) Each peptide synthesized was shifted by one amino acid, i.e. it had 14 amino acids overlap with the previous and the following peptide, respectively. For preparation of the peptide arrays the Intavis CelluSpots™ technology was employed. In this approach, peptides are synthesized with an automated synthesizer (Intavis MultiPep RS) on modified cellulose disks which are dissolved after synthesis. The solutions of individual peptides covalently linked to macromolecular cellulose are then spotted onto coated microscope slides. The CelluSpots™ synthesis was carried out stepwise utilizing 9-fluorenylmethoxycarbonyl (Fmoc) chemistry on amino-modified cellulose disks in a 384-well synthesis plate. In each coupling cycle, the corresponding amino acids were activated with a solution of DIC/HOBt in DMF. Between coupling steps un-reacted amino groups were capped with a mixture of acetic anhydride, diisopropylethyl amine and 1-hydroxybenzotriazole. Upon completion of the synthesis, the cellulose disks were transferred to a 96-well plate and treated with a mixture of trifluoroacetic acid (TFA), dichloromethane, triisoproylsilane (TIS) and water for side chain deprotection. After removal of the cleavage solution, the cellulose bound peptides are dissolved with a mixture of TFA, TFMSA, TIS and water, precipitated with diisopropyl ether and re-suspended in DMSO. The peptide solutions were subsequently spotted onto Intavis CelluSpots™ slides using an Intavis slide spotting robot.
(§4) For epitope analysis, the slides prepared as described above were washed with ethanol and then with Tris-buffered saline (TBS; 50 mM Tris, 137 mM NaCl, 2.7 mM KCl, pH 8) before blocking for 16 h at 4° C. with 5 mL 10× Western Blocking Reagent (Roche Applied Science), 2.5 g sucrose in TBS, 0.1% Tween 20. The slide was washed with TBS and 0.1% Tween 20 and incubated afterward with 1 µg/mL of the corresponding IGF1 antibodies in TBS and 0.1% Tween 20 at ambient temperature for 2 h and subsequently washed with TBS+0.1% Tween 20. For detection, the slide was incubated with anti-rabbit/anti-mouse secondary HRP-antibody (1:20000 in TBS-T) followed by incubation with chemiluminescence substrate luminol and visualized with a Lumilmager (Roche Applied Science). ELISA-positive SPOTs were quantified and through assignment of the corresponding peptide sequences the antibody binding epitopes were identified.

For another test, the target named is T3, SEQ ID NO 50 (human, also: covalently linked to cellulose).
T3 construct: Spot on the CelluSpots peptide array; also called T-G-Y-G-S-S-S-R-R-A-P-Q-T-G-G
T3 peptide: TGYGSSSRRAPQTGG
The test is described as follows: CelluSpots peptide array, chemiluminescence. The method, then: as §3, §4

The next test addresses T4, SEQ ID NO 45 (human, also: covalently linked to cellulose).
T4 construct: Spot on the CelluSpots peptide array; also called F-G-N-K-P-T-G-Y-G-S-S-S-R-R-A
T4 peptide: FGNKPTGYGSSSRRA
Briefly: CelluSpots peptide array, chemiluminescence. The protocol: as §3, §4

The next test addresses T5, SEQ ID NO 47 (human, also: covalently linked to cellulose).
T5 construct: Spot on the CelluSpots peptide array; also called N-K-P-T-G-Y-G-S-S-S-R-R-A-P-Q
T5 peptide: NKPTGYGSSSRRAPQ
The test is described as follows: CelluSpots peptide array, chemiluminescence. The protocol:
as §3, §4

The target in another test is T6, SEQ ID NO 46 (human, also: covalently linked to cellulose).
T6 construct: Spot on the CelluSpots peptide array; also called G-N-K-P-T-G-Y-G-S-S-S-R-R-A-P
T6 peptide: GNKPTGYGSSSRRAP
The test is described as follows: CelluSpots peptide array, chemiluminescence. The method, then: as §3, §4

In a further test the target is T7, SEQ ID NO 49 (human, also: covalently linked to cellulose).
T7 construct: Spot on the CelluSpots peptide array; also called P-T-G-Y-G-S-S-S-R-R-A-P-Q-T-G
T7 peptide: PTGYGSSSRRAPQTG
Briefly: CelluSpots peptide array, chemiluminescence. The protocol:
as §3, §4

In a further test the target is T8, SEQ ID NO 48 (human, also: covalently linked to cellulose).
T8 construct: Spot on the CelluSpots peptide array; also called K-P-T-G-Y-G-S-S-S-R-R-A-P-Q-T
T8 peptide: KPTGYGSSSRRAPQT
The test is described as follows: CelluSpots peptide array, chemiluminescence. The protocol:
as §3, §4

The target of a further test is T9, SEQ ID NO 43 (human, also: covalently linked to cellulose).
T9 construct: Spot on the CelluSpots peptide array; also called F-Y-F-G-N-K-P-T-G-Y-G-S-S-S-R
T9 peptide: FYFGNKPTGYGSSSR
The test is described as follows: CelluSpots peptide array, chemiluminescence. The protocol: as §3, §4

Test [3] addresses T10, Thermus thermophilus wild type SlyD polypeptide (Thermus thermophilus).
T10 construct: Used as negative control; also called wild-type Thermus thermophilus SlyD; Thermus thermophilus-SlyD
T10 chain: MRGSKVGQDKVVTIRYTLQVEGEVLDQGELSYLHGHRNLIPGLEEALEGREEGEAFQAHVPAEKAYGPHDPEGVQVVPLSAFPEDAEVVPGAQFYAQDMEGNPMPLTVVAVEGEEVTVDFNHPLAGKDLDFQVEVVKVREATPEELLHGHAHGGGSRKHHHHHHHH
Briefly: ELISA, clone culture supernatant.

Test [4] concerns the target T11, Thermococcus gammatolerans SlyD-IGF-2(53-65) fusion polypeptide.
T11 construct: Human IGF-2 amino acids 53-65 inserted into the Thermococcus gammatolerans SlyD scaffold, with GS spacer and hexahistidine tag; also called Thermococcus gammadurans SlyD-IGF-2 (53-65)
T11 chain: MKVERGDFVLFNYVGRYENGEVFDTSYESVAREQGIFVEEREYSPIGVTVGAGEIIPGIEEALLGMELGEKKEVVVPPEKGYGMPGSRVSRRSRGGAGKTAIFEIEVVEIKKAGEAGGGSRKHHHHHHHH
The test is described as follows: SPR (BIAcore T200), 25 C, antibody captured, antigen in solution. The method, then: as §1, §2
On the technique in general: SPR reads the build-up and loss of mass on a sensor chip optically.

For test [5], the target named is T10, Thermus thermophilus wild type SlyD …. The test is described as above. The protocol:
as §1, §2

In test [6] the target is T12, Thermococcus gammatolerans wild-type SlyD polypeptide (Thermococcus gammatolerans).
T12 construct: also called wild-type Thermococcus gammadurans SlyD; native SlyD from Thermococcus gammatolerans
T12 chain: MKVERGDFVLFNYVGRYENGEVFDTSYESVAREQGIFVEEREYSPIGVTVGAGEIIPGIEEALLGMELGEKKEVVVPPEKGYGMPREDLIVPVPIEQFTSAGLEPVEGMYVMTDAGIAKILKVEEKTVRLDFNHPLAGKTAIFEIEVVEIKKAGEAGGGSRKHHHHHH
Described as above. The protocol:
as §1, §2

Test [7] concerns the target T13, recombinant native IGF-2 (Peprotech Inc. Cat.#100-12) (human, UniProt P01344 25-91).
T13 construct: The sentence on the bought protein names no species; also called insulin-like growth factor-2
Described as above. The method, then: as §1, §2

Ends that are not written are not given here.

B1: MAb<h-IGF-1>M-10.07.09 (antibody, V domains shown)
VH: QVQLQQSGAELVRPGSSVKISCKASGYAFSSYWMNWVKQRPGQGLEWIGQIYPGDGDTNHNGKFKGKATLTADKSSSTVYMQLSSLTSEDSAVYFCARSGDYYGKDYWGQGTTLTVSS
VL: DIVLTQTPPSLPVNMGQKATISYKATKSLLNTDGYTYMHWNQQKPGQPPKLLIYLVSNRESGVPDRFSGSGSGTDFTLNINTVEEEDAATYYCHHSNELPHTFGAGTKLEIK
notes: Mouse monoclonal antibody from a hybridoma, raised with Thermus thermophilus SlyD-IGF-1(74-90); In SPR it was captured from clone culture supernatant through anti-mouse IgG Fc; also called MAb 10.07.09; M-10.7.9
Consider B1, for which, in test [1], the “reactivity [mE]” value came out at 2110 mE. For the same molecule, in test [2], the Kd – broadly, the constant that tells how readily two partners part at equilibrium – came to 1.6 nM; the koff (usually the rate constant with which the complex falls apart) came to 0.0015 s⁻¹; the kon (as a rule, the second-order rate constant of association) was determined as 920000 M⁻¹ s⁻¹; the t1/2-diss worked out at 0.133 h.

B2: MAb<h-IGF-1>M-11.11.17 (antibody, V domains shown)
VH: QVQLQQSGAELVRPGSSVKISCKASGYAFSNLWMNWVKQRPGQGLEWIGQIYPGDGDTNYYGDFKGKATLTADSSSSTAYMQLSRLTSEDSAVYFCARIGYYGMDYWGQGTSVTVSS
VL: DVVLTQTPLSLPVNIGDEASISCKSTKSLLSSDGLTYLDWYLQKPGQSPQVLIYLVSNRFSGVPDRFSGSGSGTDFTLKISRVEAEDLGVYYCFQSNYLPTFGAGTKLELK
notes: Mouse monoclonal IgG from a hybridoma, raised with Thermus thermophilus SlyD-IGF-1(74-90); also called MAb 11.11.17; mAb<IGF1>M-11.11.17
As for B2, the binding result in the test with SEQ ID NO 44, in the test with SEQ ID NO 50, with SEQ ID NO 45, in the test with SEQ ID NO 47, with SEQ ID NO 46 and with SEQ ID NO 49 was “binds” throughout. In addition, the binding result with SEQ ID NO 48 is “binds”; in the test with SEQ ID NO 43, “binds”; in test [4], “no binding (tested: 90 nM)”; in test [5] it was “no binding (tested: 90 nM)”; in test [6], “no binding (tested: 90 nM)”; in test [7], “no binding (tested: 90 nM)”. Further, the entries for the “reactivity [mE]” value in test [3] and in [1] were 32 mE and 2430 mE, respectively. Also, in [2], the Kd was 0.01 nM. Moreover, the koff in [2] stood at 2.1e-05 s⁻¹. Also, in test [2], the kon was determined as 2e+06 M⁻¹ s⁻¹. Besides, in test [2], the t1/2-diss came out at 9.33 h.

(Values after patent publication US20160137728A1 (ROCHE DIAGNOSTICS OPERATIONS, published 2016).)
